The source of these data is publication PMC10465527.

The target in this experiment is B55α/δ regulatory subunit of PP2A (human (endogenous in HAP1)) (UniProt P63151). Nature of the experiment: co-IP; B56α (1D3-E12) or B55α/δ (2G9) antibody crosslinked to protein G-Sepharose, 1 h with lysates of HAP1 wild-type and lcmt1-/- cells; lysis buffer 10% glycerol, 135 mM NaCl, 20 mM Tris pH 8.0, 1% Nonidet P-40; immunoblot, co-precipitated A and C normalised to the B subunit. For orientation: In western blotting, separated proteins are transferred to a membrane and probed.
Sequence of UniProt P63151 (P63151 whole entry, stated change not applied): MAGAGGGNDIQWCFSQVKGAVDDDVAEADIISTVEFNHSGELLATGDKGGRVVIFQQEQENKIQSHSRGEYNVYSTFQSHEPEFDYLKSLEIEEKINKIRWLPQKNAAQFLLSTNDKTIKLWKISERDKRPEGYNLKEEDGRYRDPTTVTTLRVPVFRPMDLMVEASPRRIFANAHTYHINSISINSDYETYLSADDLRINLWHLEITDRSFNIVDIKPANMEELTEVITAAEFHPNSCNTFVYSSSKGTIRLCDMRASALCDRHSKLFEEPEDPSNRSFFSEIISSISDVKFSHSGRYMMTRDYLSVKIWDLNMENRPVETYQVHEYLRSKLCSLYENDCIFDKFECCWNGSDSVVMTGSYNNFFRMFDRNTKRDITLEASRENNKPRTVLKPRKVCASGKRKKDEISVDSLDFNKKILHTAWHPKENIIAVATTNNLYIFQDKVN

Take “non-methylated PP2A-C (catalytic C subunit of PP2A) (from UniProt P67775 1-309) (natural protein)”: the trimeric holoenzyme level relative to wild-type cells (of the levels in wild-type cells) was 0.33.
